This note sets out measurements from patent publication US20100041074A1 (published 2010).

For this experiment, the target named is GST fused GRP78 protein (GST-GRP78) purified from E. coli (UniProt P11021 19-654). Nature of the experiment: ELISA.

Values joined by “and” are separate entries in the source; they are usually repeats but may differ in a detail not shown here. Equal values may be shown once.

B1: toxin-labeled GD17 single-chain antibody (GD17scFv-PE40) (scFv)
scFv: MDHHHHHHHHHHKLQVQLQQSGAELARPGASVKLSCKASGYTFTSYWMHWVKQRPGQGLEWIGAIYPGDGDTRYTQKFKGKATLTADKSSSTAYMQLSSLASEDSAVYYCASGITAVADYWGQGTTLTVSSGGGGSGGGGSGGGGSDVVMTQTPLSLPVSLGDQASISCRSSQSLVHSNGNTYLHWYLQKPGQSPKLLIYKVSNRFSGVPDRFSGSGSGTDFTLKISRVEAEDLGVYFCSQSTHVPLTFGAGTKLELKEFGGAPEFPKPSTPPGSSGLEGGSLAALTAHQACHLPLETFTRHRQPRGWEQLEQCGYPVQRLVALYLAARLSWNQVDQVIRNALASPGSGGDLGEAIREQPEQARLALTLAAAESERFVRQGTGNDEAGAANADVVSLTCPVAAGECAGPADSGDALLERNYPTGAEFLGDGGDVSFSTRGTQNWTVERLLQAHRQLEERGYVFVGYHGTFLEAAQSIVFGGVRARSQDLDAIWRGFYIAGDPALAYGYAQDQEPDARGRIRNGALLRVYVPRSSLPGFYRTSLTLAAPEAAGEVERLIGHPLPLRLDAITGPEEEGGRLETILGWPLAERTVVIPSAIPTDPRNVGGDLDPSSIPDKEQAISALPDYASQPGKPPDYKDDDDKKDEL
As for B1, the EC50 is 1.41 nM and 1.25 nM.
